Experiments:
[1] = molecular target: Redbeads; assay: flow cytometry of red fluoromagnetic beads specific for alemtuzumab in PBS with 3% BSA, sample at 0 ug/ml (background of the series)
[2] = molecular target: Redbeads; assay: flow cytometry of red fluoromagnetic beads specific for alemtuzumab in spiked PBS with 3% BSA; the text words the ug/ml values as concentrations of the beads

Mean, FL1-H (blank sample at 0.0 ug/ml) [1]: 2.11
Median, FL1-H (blank sample at 0.0 ug/ml) [1]: 1.68
Mean, FL1-H (sample at 0.1 ug/ml) [2]: 5.69
Mean, FL1-H (sample at 0.5 ug/ml) [2]: 49.1
Mean, FL1-H (sample at 1.0 ug/ml) [2]: 94.4
Mean, FL1-H (sample at 10 ug/ml) [2]: 493
Median, FL1-H (sample at 0.1 ug/ml) [2]: 5.26
Median, FL1-H (sample at 0.5 ug/ml) [2]: 36.2
Median, FL1-H (sample at 1.0 ug/ml) [2]: 74.3
Median, FL1-H (sample at 10 ug/ml) [2]: 483
Substance: alemtuzumab (antibody)

From patent US20160146829A1
